Results: patent US20140179594A1, “STREPTOCOCCUS BACTERIOPHAGE LYSINS FOR TREATMENT OF GRAM POSITIVE BACTERIA IN COMPANION ANIMALS AND LIVESTOCK” (priority 2011, published 2014)

Experiments:
S. suis strain (7711) = assay: PlySs1 optimal biochemical conditions, turbidity reduction (OD600); format: cell-based; details: for pH of maximal lysis: bis-tris-propane (BTP) buffer
Experimental: FIGS. 11A and 11B depicts ΔPlySs1 pH dependence. (A) Cells of host strain 7711 were suspended in phosphate citrate buffer (40/20 mM) at a range of pH-values from 4.6 to 8.0. ΔPlySs1 was added (110 μg/ml) and OD600 was measured over 60 min (horizontal axis) at 37° C. The vertical axis represents the treated/untreated OD600-ratio at each timepoint. For each pH-value, the curve depicts the running average of 3 independent experiments. Overall, activity was maximal at the upper end of the buffering range. (B) Here, bis-tris-propane (40 mM) was employed as the buffering agent with a pH-range from 7.0 to 9.7; ΔPlySs1 was again added to 110 μg/ml. Each curve depicts the running average of 3 experiments.
FIG. 12 depicts ΔPLySS1 NaCl dependence. S. suis 7711 cells were suspended in phosphate-citrate buffer pH=7.8 (40/20 mM). NaCl was added to the above concentrations, followed by ΔPlySs1 at 110 μg/ml. Optical density at 600 nm was observed over 60 min at 37° C. In this figure, the vertical axis represents the treated/untreated OD600-ratio for each NaCl concentration, averaged over 3 independent experiments.
FIGS. 13A and 13B provides assessment of ΔPlySs1 DTT and EDTA susceptibility. (A) ΔPlySs1 was pre-incubated for 1 hr with 5 mM DTT (a large molar excess) prior to addition to 7711 cells; activity was unchanged. (B) Here, various concentrations of EDTA were included in the buffered suspension of cells prior to addition of ΔPlySs1 (110 μg/ml lysin). For both images, the vertical axis represents the treated/untreated OD600-ratio for each condition, averaged over 3 independent experiments.
(A) A ΔPlySs1 stock solution was held at each of the above temperature for 30 minutes, followed by addition to 7711 cells (270 μg/ml final enzyme concentration, final temperature=37° C., ideal buffering conditions). The curves in this image represent running averages of 3 individual experiments. In each case, complete loss of activity was observed between the 45° C. and 50° C. samples. The 3 hottest samples show a slightly higher OD600 reading than the untreated control due to flocculation of ΔPlySs1 upon denaturation. (B) The above experiment was repeated, but with 6 hours of heat-treatment prior to the assay. […] The 40° C. sample maintained essentially native activity.
The optimal biochemical conditions for PlySs1 were determined against live cells of the encoding S. suis strain (7711). For these experiments, activity was gauged through the degree of turbidity reduction (OD600) of an aqueous bacterial suspension following the addition of lysin. The pH-dependence of the enzyme was first addressed using two buffer sets with adjacent pH ranges, citrate/phosphate: 4.6-8.0; and bis-tris-propane (BTP): 7.0-9.7. An extended spectrum of lysis was observed, from 5.4-9.4 (FIG. 11A). In BTP, lysis was maximal from 8.2-9.0; at commensurate pH-values, however, the magnitude of the OD-drop was slightly more pronounced in citrate/phosphate (FIG. 11B).
At constant enzyme concentrations, bacteriolysis varied little from 0-1000 mM NaCl, with only small numeric increases under the most hypotonic conditions (FIG. 12). […] The thermal stability of PlySs1 was examined by incubating the enzyme at various elevated temperatures prior to use (the OD-drop experiment itself was always conducted at 37° C.). When held at 35° C.-60° C. for 30 min, lysin activity was virtually unaffected until 50° C., at which point it was completely abolished (FIG. 14A). […] The latter corresponds to typical porcine body temperature.

[1] = test system: purified S. suis cell walls (from type strain 5735); assay: PlySs1 bond specificity, double digestion with HEWL, mass spectrum; format: biochemical; details: double digestion with HEWL and PlySs1
Text: To determine the bond specificity of the enzymatic domain of PlySs1, purified S. suis cell walls (from type strain 5735) were subject to double digestion with HEWL (a muramidase) and PlySs1. The two predominant peaks were m/z=718 and m/z=734. This corresponds exactly to the predicted masses of the [Na-M]+ and [K-M]+ adducts of GlcNAc-MurNAc-LAla-D-Gln. […] When a mass spectrum was taken of undigested cell wall, the above two peaks were absent.

S. dysgalactiae 21597 = assay: ΔPlySs1 OD600 lysis, 1 hr; format: cell-based
S. pneumoniae R36 = assay: ΔPlySs1 OD600 lysis, 1 hr; format: cell-based
S. equi 700400 = assay: ΔPlySs1 OD600 lysis, 1 hr; format: cell-based
S. gordonii 10558 = assay: ΔPlySs1 OD600 lysis, 1 hr; format: cell-based
S. equi 9528 = assay: ΔPlySs1 OD600 lysis, 1 hr; format: cell-based
L. monocytogenes HER1084 = assay: ΔPlySs1 OD600 lysis, 1 hr; format: cell-based
S. sanguinis 10556 = assay: ΔPlySs1 OD600 lysis, 1 hr; format: cell-based
M. luteus 4698 = assay: ΔPlySs1 OD600 lysis, 1 hr; format: cell-based
B. thuringiensis HD73 = assay: ΔPlySs1 OD600 lysis, 1 hr; format: cell-based

B1: ΔPlySs1: truncated PlySs1 lysin with N-terminal enzymatic and central binding domains, N-terminal 254 amino acids, SEQ ID NO:2 (protein, listed as Streptococcus suis)
chain: MTINLETSIRWMSDRVGKVSYSMDYRNGPNSYDCSSAVYYALMAGGAISAGWAVNTEYMHDWLIRNGYVLVAENKPFNAQRHDVCILGKRGYSSGAGGHVVIFVDNVNVIHCNYARNGISIDNYNQVHRGMYYYLYRPANQPSISNKSLDQLVKETLAGVHGNGDTRKASLGSQYEAVMAVINGKASASEKSDEELAREVLAGKHGAGEDRKRSLGPRYEPVQAKVNELLKAKEKPSETAKNEPQTVQFKEDGDL
With B1 the “effect of salt concentration on bacteriolysis” value (S. suis strain (7711); 0-1000 mM NaCl, constant enzyme concentration) was “varied little”, the “thermal stability, activity after heat treatment” value (S. suis strain (7711); 6-hr incubation at 40° C.) was “unaffected” and the “thermal stability, activity after heat treatment” value (S. suis strain (7711); 6-hr incubation at 45° C.) was “partial decrease in activity”. For the same molecule, the “pH of maximal lysis” value (S. suis strain (7711); S. suis 7711) was 9.0, the “pH of maximal lysis” value (S. suis strain (7711); S. suis 7711, listed as PlySs1) was 8.2-9.0 and the “pH spectrum of lysis” value (S. suis strain (7711); S. suis 7711, citrate/phosphate 4.6-8.0 and bis-tris-propane 7.0-9.7) was 5.4-9.4. The “effect of DTT on activity” value (S. suis strain (7711); exposure to an excess of DTT (5 mM, 1 hr pre-incubation)) was “did not negatively impact activity”, the “effect of EDTA on activity” value (S. suis strain (7711); exposure to an excess of EDTA) was “did not negatively impact activity” and the “temperature at which activity is completely abolished” value (S. suis strain (7711); held at 35° C.-60° C. for 30 min before assay at 37° C.) was 50 °C. For the same molecule, the “bond specificity of the enzymatic domain” value [1] was “gamma-endopeptidase activity”, the “1-hour treated/untreated OD600-ratio” value (S. dysgalactiae 21597; 6.5 μg/ml) was 0.26 and the “1-hour treated/untreated OD600-ratio” value (S. dysgalactiae 21597; 13 μg/ml) was 0.18. For the same molecule, the “1-hour treated/untreated OD600-ratio” value (S. dysgalactiae 21597; 30 μg/ml) was 0.12, the “1-hour treated/untreated OD600-ratio” value (S. dysgalactiae 21597; 65 μg/ml) was 0.10 and the “1-hour treated/untreated OD600-ratio” value (S. dysgalactiae 21597; 130 μg/ml) was 0.09. For the same molecule, the “1-hour treated/untreated OD600-ratio” value (S. pneumoniae R36; 6.5 μg/ml) was 0.25, the “1-hour treated/untreated OD600-ratio” value (S. pneumoniae R36; 13 μg/ml) was 0.22 and the “1-hour treated/untreated OD600-ratio” value (S. pneumoniae R36; 30 μg/ml) was 0.14. The “1-hour treated/untreated OD600-ratio” value (S. pneumoniae R36; 65 μg/ml) was 0.16, the “1-hour treated/untreated OD600-ratio” value (S. pneumoniae R36; 130 μg/ml) was 0.12 and the “1-hour treated/untreated OD600-ratio” value (S. equi 700400; 6.5 μg/ml) was 0.48. For the same molecule, the “1-hour treated/untreated OD600-ratio” value (S. equi 700400; 13 μg/ml) was 0.25, the “1-hour treated/untreated OD600-ratio” value (S. equi 700400; 30 μg/ml) was 0.15 and the “1-hour treated/untreated OD600-ratio” value (S. equi 700400; 65 μg/ml) was 0.07. For the same molecule, the “1-hour treated/untreated OD600-ratio” value (S. equi 700400; 130 μg/ml) was 0.09, the “1-hour treated/untreated OD600-ratio” value (S. gordonii 10558; 6.5 μg/ml) was 0.76 and the “1-hour treated/untreated OD600-ratio” value (S. gordonii 10558; 13 μg/ml) was 0.32. For the same molecule, the “1-hour treated/untreated OD600-ratio” value (S. gordonii 10558; 30 μg/ml) was 0.19, the “1-hour treated/untreated OD600-ratio” value (S. gordonii 10558; 65 μg/ml) was 0.09 and the “1-hour treated/untreated OD600-ratio” value (S. gordonii 10558; 130 μg/ml) was 0.06. The “1-hour treated/untreated OD600-ratio” value (S. equi 9528; 6.5 μg/ml) was 0.66, the “1-hour treated/untreated OD600-ratio” value (S. equi 9528; 13 μg/ml) was 0.45 and the “1-hour treated/untreated OD600-ratio” value (S. equi 9528; 30 μg/ml) was 0.25. For the same molecule, the “1-hour treated/untreated OD600-ratio” value (S. equi 9528; 65 μg/ml) was 0.19, the “1-hour treated/untreated OD600-ratio” value (S. equi 9528; 130 μg/ml) was 0.16 and the “1-hour treated/untreated OD600-ratio” value (L. monocytogenes HER1084; 6.5 μg/ml) was 0.63. The “1-hour treated/untreated OD600-ratio” value (L. monocytogenes HER1084; 13 μg/ml) was 0.52, the “1-hour treated/untreated OD600-ratio” value (L. monocytogenes HER1084; 30 μg/ml) was 0.26 and the “1-hour treated/untreated OD600-ratio” value (L. monocytogenes HER1084; 65 μg/ml) was 0.14. The “1-hour treated/untreated OD600-ratio” value (L. monocytogenes HER1084; 130 μg/ml) was 0.04, the “1-hour treated/untreated OD600-ratio” value (S. sanguinis 10556; 6.5 μg/ml) was 0.48 and the “1-hour treated/untreated OD600-ratio” value (S. sanguinis 10556; 13 μg/ml) was 0.44. For the same molecule, the “1-hour treated/untreated OD600-ratio” value (S. sanguinis 10556; 30 μg/ml) was 0.28, the “1-hour treated/untreated OD600-ratio” value (S. sanguinis 10556; 65 μg/ml) was 0.21 and the “1-hour treated/untreated OD600-ratio” value (S. sanguinis 10556; 130 μg/ml) was 0.11. The “1-hour treated/untreated OD600-ratio” value (M. luteus 4698; 6.5 μg/ml) was 0.84, the “1-hour treated/untreated OD600-ratio” value (M. luteus 4698; 13 μg/ml) was 0.90 and the “1-hour treated/untreated OD600-ratio” value (M. luteus 4698; 30 μg/ml) was 0.83. The “1-hour treated/untreated OD600-ratio” value (M. luteus 4698; 65 μg/ml) was 0.87, the “1-hour treated/untreated OD600-ratio” value (M. luteus 4698; 130 μg/ml) was 0.82 and the “1-hour treated/untreated OD600-ratio” value (B. thuringiensis HD73; 6.5 μg/ml) was 0.99. The “1-hour treated/untreated OD600-ratio” value (B. thuringiensis HD73; 13 μg/ml) was 0.98, the “1-hour treated/untreated OD600-ratio” value (B. thuringiensis HD73; 30 μg/ml) was 0.93 and the “1-hour treated/untreated OD600-ratio” value (B. thuringiensis HD73; 65 μg/ml) was 0.86. The “1-hour treated/untreated OD600-ratio” value (B. thuringiensis HD73; 130 μg/ml) was 0.60.
